In US20250341526A1, “NOVEL DYES” (Quantum-Si Incorporated, priority 2024, published 2025):
Values belong to the molecule of their own block, whether it stands above or below them.

Columns and labels:
[1] = Persistence of triplet state quenchers in solution; format: physicochemical
From the text: FIGS. 11A-11B show the persistence of cyclooctatetraene (FIG. 11A) and COT-PEG3-sulfonate (triethylammonium salt) (FIG. 11B) in solution.
Cyclooctatetraene (COT)-based triplet state quenchers (TSQs) were used in place of or in addition to the currently used Trolox TSQ. TSQs can enhance photophysical properties of dyes in single-molecule studies, and the optimal TSQ can depend on the class of dye used. Trolox and COT quench triplet states by different mechanisms.
Water-soluble COT conjugates were made to improve solution stability of these TSQs (FIG. 11). The derivatives were made via various amide coupling reactions between COT-CO2H and the appropriate amine. COT-CO2H can be purchased or made in two steps from the parent COT compound.

[2] = tested on: amino acid at a terminal position of a polypeptide; settings: Table 2; amino acid at terminal position (phosphotyrosine also internal); inferred from literature and/or demonstrated by the inventors; cited from earlier work

stability (persistence) in solution ([1]; also in the presence of mineral oil): its concentration drops over time
water solubility ([1]; sequencing buffer): not fully water-soluble
Molecule: C1=CC=CC=CC=C1 [unsubstituted COT, cyclooctatetraene]

B1: PS626: amino acid recognition protein, SEQ ID NO: 186 (protein, listed as Zygosaccharomyces parabailii)
chain: MYHVYKHSGRNCGRKFKVGEPIYRCHECGYDETCVLCIHCFNPKDHDSHHVYIDICSEFSTGICDCGDTEAFVNPLHCKAEED
Binding Pref. [2]: K, R, H

B2: PS624: amino acid recognition protein, SEQ ID NO: 184 (protein, listed as Eremothecium sinecaudum)
chain: MPKNHNHKGRNCGRSFQPGEPLYRCQECAYDDTCVLCIRCFNPLDHVNHHVSTHICSEFNDGICDCGDVEAWNVELNCKAEED
Binding Pref. [2]: K, R, H

B3: PS628: amino acid recognition protein, SEQ ID NO: 188 (protein)
chain: MSHRAYHKNSPCGRIFRKGEPIHRCLTCGFDDTCALCSHCFQPEYHEGHKVHIGICQRENGGVCDCGDPEAWTQELFCPYAVD
modifications: Candida albicans
Binding Pref. [2]: K, R, H

B4: Escherichia coli leucyl/phenylalanyl-tRNA-protein transferase: amino acid recognition protein, SEQ ID NO: 111 (protein, listed as Escherichia coli)
chain: MRLVQLSRHSIAFPSPEGALREPNGLLALGGDLSPARLLMAYQRGIFPWFSPGDPILWWSPDPRAVLWPESLHISRSMKRFHKRSPYRVTMNYAFGQVIEGCASDREEGTWITRGVVEAYHRLHELGHAHSIEVWREDELVGGMYGVAQGTLFCGESMFSRMENASKTALLVFCEEFIGHGGKLIDCQVLNDHTASLGACEIPRRDYLNYLNQMRLGRLPNNFWVPRCLFSPQELE
Binding Pref. [2]: K, R

B5: PS625: amino acid recognition protein, SEQ ID NO: 185 (protein, listed as Saccharomyces eubayanus)
chain: MGDVHKHTGRNCGRKFKIGEPLYRCHECGCDDTCVLCIHCFNPKDHINHHVCTDICSEFTSGICDCGDEEAWNSSLHCKAEEQ
Binding Pref. [2]: K, R, H

B6: PS629: amino acid recognition protein, SEQ ID NO: 189 (protein, listed as Pichia pastoris)
chain: MCPNYKHHGRPCARQFKQGEPIYRCYECGFDETCVMCMHCFNREQHRDHEVSISIASSSNDGICDCGDPQAWNIELHCQSELD
Binding Pref. [2]: K, R, H

B7: PS627: amino acid recognition protein, SEQ ID NO: 187 (protein, listed as Zygosaccharomyces mellis)
chain: MPKYHQHSGRYCGRKFKVGEPIYRCHECGFDETCVICIHCFNAKDHETHHVSVSICSEYSTGICDCGDTEAFVNPLHCRAEEV
Binding Pref. [2]: K, R, H
